Tests used:
[1] = target: T1, PRO5801 (human IL-17RH1 receptor) (Homo sapiens, UniProt Q9NRM6); assay: Receptor/ligand interaction screening assay (immunoadhesin); type: binding
T1 sequence (Q9NRM6 18-502): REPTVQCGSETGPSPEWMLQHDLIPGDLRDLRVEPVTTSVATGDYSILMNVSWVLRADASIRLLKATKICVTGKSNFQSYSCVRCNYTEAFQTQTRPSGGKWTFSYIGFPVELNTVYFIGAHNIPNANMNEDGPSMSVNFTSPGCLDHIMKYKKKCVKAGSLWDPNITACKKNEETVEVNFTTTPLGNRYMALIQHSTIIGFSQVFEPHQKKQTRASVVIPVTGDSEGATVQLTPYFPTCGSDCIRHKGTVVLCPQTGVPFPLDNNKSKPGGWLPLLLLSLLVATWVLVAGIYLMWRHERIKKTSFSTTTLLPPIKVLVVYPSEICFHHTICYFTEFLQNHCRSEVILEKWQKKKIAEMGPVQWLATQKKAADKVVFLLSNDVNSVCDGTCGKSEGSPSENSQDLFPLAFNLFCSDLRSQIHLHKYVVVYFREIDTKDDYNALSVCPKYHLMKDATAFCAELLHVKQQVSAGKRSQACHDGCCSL
Procedure: (§1) In general, the assay is performed as follows. A PRO polypeptide of the present invention suspected of being a ligand for a receptor is expressed as a fusion protein containing the Fc domain of human IgG (an immunoadhesin). Receptor-ligand binding is detected by allowing interaction of the immunoadhesin polypeptide with cells (e.g. Cos cells) expressing candidate PRO polypeptide receptors and visualization of bound immunoadhesin with fluorescent reagents directed toward the Fc fusion domain and examination by microscope. Cells expressing candidate receptors are produced by transient transfection, in parallel, of defined subsets of a library of cDNA expression vectors encoding PRO polypeptides that may function as receptor molecules. Cells are then incubated for 1 hour in the presence of the PRO polypeptide immunoadhesin being tested for possible receptor binding. The cells are then washed and fixed with paraformaldehyde. The cells are then incubated with fluorescent conjugated antibody directed against the Fc portion of the PRO polypeptide immunoadhesin (e.g. FITC conjugated goat anti-human-Fc antibody). The cells are then washed again and examined by microscope. A positive interaction is judged by the presence of fluorescent labeling of cells transfected with cDNA encoding a particular PRO polypeptide receptor or pool of receptors and an absence of similar fluorescent labeling of similarly prepared cells that have been transfected with other cDNA or pools of cDNA. If a defined pool of cDNA expression vectors is judged to be positive for interaction with a PRO polypeptide immunoadhesin, the individual cDNA species that comprise the pool are tested individually (the pool is “broken down”) to determine the specific cDNA that encodes a receptor able to interact with the PRO polypeptide immunoadhesin.
(§2) In another embodiment of this assay, an epitope-tagged potential ligand PRO polypeptide (e.g., 8 histidine “His” tag) is allowed to interact with a panel of potential receptor PRO polypeptide molecules that have been expressed as fusions with the Fc domain of human IgG (immunoadhesins). Following a 1 hour co-incubation with the epitope tagged PRO polypeptide, the candidate receptors are each immunoprecipitated with protein A beads and the beads are washed. Potential ligand interaction is determined by Western blot analysis of the immunoprecipitated complexes with antibody directed towards the epitope tag. An interaction is judged to occur if a band of the anticipated molecular weight of the epitope tagged protein is observed in the Western blot analysis with a candidate receptor, but is not observed to occur with the other members of the panel of potential receptors.

[2] = target: human IL-17 receptor (IL-17R, PRO1) (Homo sapiens, UniProt Q96F46); assay: as above; type: binding
Procedure: as §1, §2

[3] = target: T2, human IL-17 receptor (IL-17R, PRO1) as tested in the receptor/ligand screen (human, UniProt Q96F46 33-320, limits assumed); assay: receptor/ligand screen (immunoadhesin on transfected cells or co-immunoprecipitation)
T2 construct: also called IL-7R (as misprinted)
From the text: (§3) A PRO polypeptide of the present invention suspected of being a ligand for a receptor is expressed as a fusion protein containing the Fc domain of human IgG (an immunoadhesin). Receptor-ligand binding is detected by allowing interaction of the immunoadhesin polypeptide with cells (e.g. Cos cells) expressing candidate PRO polypeptide receptors and visualization of bound immunoadhesin with fluorescent reagents directed toward the Fc fusion domain and examination by microscope. Cells expressing candidate receptors are produced by transient transfection, in parallel, of defined subsets of a library of cDNA expression vectors encoding PRO polypeptides that may function as receptor molecules. Cells are then incubated for 1 hour in the presence of the PRO polypeptide immunoadhesin being tested for possible receptor binding. The cells are then washed and fixed with paraformaldehyde. […]
(§4) In another embodiment of this assay, an epitope-tagged potential ligand PRO polypeptide (e.g., 8 histidine “His” tag) is allowed to interact with a panel of potential receptor PRO polypeptide molecules that have been expressed as fusions with the Fc domain of human IgG (immunoadhesins). […] Potential ligand interaction is determined by Western blot analysis of the immunoprecipitated complexes with antibody directed towards the epitope tag.

[4] = target: T3, PRO5801 (human IL-17RH1 receptor) as tested in the receptor/ligand screen (human, UniProt Q9NRM6 18-292, limits assumed); assay: as above
T3 sequence (looked up): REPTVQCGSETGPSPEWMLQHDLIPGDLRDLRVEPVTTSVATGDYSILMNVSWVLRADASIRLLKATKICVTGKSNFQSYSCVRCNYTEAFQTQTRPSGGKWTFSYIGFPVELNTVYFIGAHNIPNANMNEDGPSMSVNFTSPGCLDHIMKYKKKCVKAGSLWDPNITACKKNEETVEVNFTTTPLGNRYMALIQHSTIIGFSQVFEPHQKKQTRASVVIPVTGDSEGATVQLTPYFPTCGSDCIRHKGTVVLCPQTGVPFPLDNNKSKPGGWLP
From the text: as §3, §4

B1: PRO1031 (human IL-17B ligand) (ligand, UniProt Q9UHF5 21-180, looked up)
chain: QPRSPKSKRKGQGRPGPLAPGPHQVPLDLVSRMKPYARMEEYERNIEEMVAQLRNSSELAQRKCEVNLQLWMSNKRSLSPWGYSINHDPSRIPVDLPEARCLCLGCVNPFTMQEDRSMVSVPVFSQVPVRRRLCPPPPRTGPCRQRAVMETIAVGCTCIF
Question: Which results are given for B1?
Answer: binding to IL-17RH1 receptor (PRO5801) [1]: binds to; binding to human IL-17 receptor (IL-17R, PRO1) [2]: do not bind; binding result [3]: no binding; binding result [4]: binds
